Values belong to the binder of their own block, whether it stands above or below them.
Molecular target: T1, soluble ROR1 ectodomain (UniProt Q01973 30-406)
T1 construct: extracellular domain; also called ROR1-A647
Assay: method not stated in the legend (FIGS. 1A-1C)

T1 sequence (Q01973 30-406 limits assumed): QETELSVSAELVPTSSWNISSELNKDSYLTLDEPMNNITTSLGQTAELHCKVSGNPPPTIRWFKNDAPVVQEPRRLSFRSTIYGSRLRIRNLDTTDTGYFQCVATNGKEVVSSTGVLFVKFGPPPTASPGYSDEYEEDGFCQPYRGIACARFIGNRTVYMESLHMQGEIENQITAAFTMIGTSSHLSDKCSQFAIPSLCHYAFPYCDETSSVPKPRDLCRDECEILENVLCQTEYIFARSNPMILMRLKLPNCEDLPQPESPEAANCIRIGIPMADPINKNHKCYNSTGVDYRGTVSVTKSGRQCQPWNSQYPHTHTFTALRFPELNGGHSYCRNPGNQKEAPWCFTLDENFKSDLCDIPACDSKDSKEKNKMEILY

Kd: 2 nM
B1: Nb11 WT (VHH)
VHH: QVKLVQSGGGLVQAGGSLRLSCAASGSIFSSASMGWYRQAPGKPREQVASITRDGNTYYEDDVKGRFTISRDNARSTGYLQMNSLTPEDTGVYYCNVYQLGFYDKWGQGTQVIVSS
notes: also called free Nb11

Kd: 2 nM
B2: Nb14 WT (VHH)
VHH: QVKLVQSGGGLVQTGGSLRLSCAASEITFDMYSMGWYREAPGKARDAVASITNRGNTYYADSVKGRFTISRDNAKKTMYLQMNSLKPEDTAVYYCNVYRTGFSDYWGQGTQVTVSS
notes: also called free Nb14

— patent US20240025996A1 (FRED HUTCHINSON CANCER CENTER, published 2024)
